This assay addresses T1, Aβ aggregates in human Alzheimer's disease brain (Homo sapiens (endogenous, Alzheimer's …, UniProt P05067)).
T1 construct: Aβ peptide of the amyloid precursor protein, aggregated in patient brain; also called Alzheimer's brain lysates; Aβ plaques; source: endogenous, human Alzheimer's disease brain (hippocampus homogenates; paraffin-embedded frontal cortex sections)
As to the kind of experiment: immunostaining of cells or tissue; immunohistochemistry of paraffin-embedded frontal cortex of Alzheimer's disease patients with moderate cerebral amyloid angiopathy; Digoxigenin-tagged antibody applied 1 h; HRP polymer, DAB. To be noted: one partner purified.

B1: 97A34 tagged with Digoxigenin (antibody, V domains shown)
VH: EVQLVESGGGLVQPGGSLRLSCAASGYNIKATYIHWVRQAPGKGLEWVARIYPASGATRYADSVKGRFTISADTSKNTAYLQMNSLRAEDTAVYYCARDGYDGSYFVGYDYNDFYDYWGQGTLVTVSS
VL: DIQMTQSPSSLSASVGDRVTITCRASQNVAYAVTWYQQKPGKAPKLLIYSASFLYSGVPSRFSGSRSGTDFTLTISSLQPEDFATYYCQQHSTYPPTFGQGTKVEIK
notes: heavy chain constant region; light chain constant region; Detected with a Human-on-Human HRP-Polymer kit through mouse anti-Digoxigenin; I surmise the human IgG1 kappa form
Consider B1, for which the binding result is recorded as “binds”.

The values are drawn from article PMC12554751 (Frontiers in Immunology, 2025).
